In US20080182978A1, “ANTI-NGF ANTIBODIES AND METHODS USING SAME” (RINAT NEUROSCIENCE CORP, priority 2002, published 2008):

Experiments:
[1] = biological target: T1, human NGF (Homo sapiens, UniProt P01138); assay: cell-based or functional assay
Target sequence in this assay (P01138 122-241 limits assumed): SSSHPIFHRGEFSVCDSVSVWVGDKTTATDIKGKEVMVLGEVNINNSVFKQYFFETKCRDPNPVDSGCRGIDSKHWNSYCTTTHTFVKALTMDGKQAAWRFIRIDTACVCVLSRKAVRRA

[2] = biological target: rat NGF (rat) (UniProt P25427); assay: cell-based or functional assay
[3] = biological target: rat NGF (Rattus norvegicus, UniProt P25427); assay: Mouse E13.5 trigeminal neuron survival assay, rat NGF; assay type: cell-based; conditions: 1.5 or 15 pM rat NGF
Description: (§1) The ability of Fab E3 or full antibody E3 to block NGF activity was evaluated by measurement of the capacity of the antibody to inhibit NGF-dependent survival of mouse E13.5 trigeminal neurons in vitro. The trigeminal ganglion is comprised of cutaneous sensory neurons that innervate the facial region. The survival of mouse E13.5 trigeminal neurons is a sensitive assay to evaluate the NGF-blocking activity of anti-NGF antagonist antibodies because NGF is required to support survival of these neurons. For example, at saturating concentrations of NGF, the survival is close to 100% by 48 hours in culture. By contrast, less than 5% of the neurons survive by 48 hours in absence of NGF.
The survival assay was conducted as follows: time-mated pregnant Swiss Webster female mice were euthanized by CO2 inhalation. The uterine horns were removed and the embryos at embryonic stage E13.5 were extracted and decapitated. The trigeminal ganglia were dissected using electrolytically sharpened tungsten needles. The ganglia were then trypsinized, mechanically dissociated and plated at a density of 200-300 cells per well in defined, serum-free medium in 96-well plates coated with poly-L-ornithine and laminin. […]

[4] = biological target: T1, human NGF; assay: Mouse E13.5 trigeminal neuron survival assay, human NGF; assay type: cell-based; conditions: 1.5 or 15 pM human NGF
Description: as §1
Target sequence in this assay (P01138 122-241): as the sequence (P01138 122-241 limits assumed) above
The survival assay was conducted as follows: time-mated pregnant Swiss Webster female mice were euthanized by CO2 inhalation. The uterine horns were removed and the embryos at embryonic stage E13.5 were extracted and decapitated. The trigeminal ganglia were dissected using electrolytically sharpened tungsten needles. The ganglia were then trypsinized, mechanically dissociated and plated at a density of 200-300 cells per well in defined, serum-free medium in 96-well plates coated with poly-L-ornithine and laminin.
After 48 hours in culture, the cells were subjected to an automated immunocytochemistry protocol performed on a Biomek FX liquid handling workstation (Beckman Coulter) as follows: fixation using 4% formaldehyde, 5% sucrose, and PBS; permeabilization using 0.3% Triton X-100 in PBS); blocking of unspecific binding sites using 5% normal goat serum, 0.11% BSA in PBS; and sequential incubation with a primary and secondary antibodies to detect neurons. The primary antibody was rabbit polyclonal antibody against the protein gene product […] (PGP9.5, Chemicon), an established neuronal phenotypic marker. The secondary antibody was Alexa Fluor 488 goat anti-rabbit (Molecular Probes), together with the nuclear dye Hoechst 33342 (Molecular Probes) to label the nuclei of all the cells present in the culture. […]

[5] = biological target: T1, human NGF; assay: BIAcore screening assay of Fab library clones (koff); assay type: binding
Description: Small scale expression in 96 wells plates was optimized for screening Fab libraries. Starting from E. coli transformed with a Fab library, colonies were picked to inoculate both a master plate (agar LB+Ampicillin (50 μg/ml)+2% Glucose) and a working plate (2 ml/well, 96 well/plate containing 1.5 mL of LB+Ampicillin (50 μg/ml)+2% Glucose). Both plates were grown at 30° C. for 8-12 hours. The master plate was stored at 4° C. and the cells from the working plate were pelleted at 5000 rpm and resuspended with 1 mL of LB+Ampicillin (50 μg/ml)+1 mM IPTG to induce expression of Fabs. Cells were harvested by centrifugation after 5 h expression time at 30° C., then resuspended in 500 μL of buffer HBS-EP ([…] buffer pH 7.4, 150 mM NaCl, 0.005% P20, 3 mM EDTA). Lysis of HBS-EP resuspended cells was attained by one cycle of freezing (−80° C.) then thawing at 37° C. Cell lysates were centrifuged at 5000 rpm for 30 min to separate cell debris from supernatants containing Fabs. The supernatants were then injected into the BIAcore plasmon resonance apparatus to obtain affinity information for each Fab. Clones expressing Fabs were rescued from the master plate to sequence the DNA and for large scale Fab production and detailed characterization as described below.
Affinities of anti-NGF Fabs and monoclonal antibodies were determined using the BIAcore300™ surface plasmon resonance (SPR) system (BIAcore, INC, Piscaway N.J.). CM5 chips were activated with N-ethyl-N′-(3-dimethylaminopropyl)-carbodimide hydrochloride (EDC) and N-hydroxysuccinimide (NHS) according to the supplier's instructions. Human NGF was diluted into 10 mM sodium acetate pH 4.0 and injected over the activated chip at a concentration of 0.005 mg/mL. Using variable flow time across the individual chip channels, two ranges of antigen density were achieved: 100-200 response units (RU) for detailed kinetic studies and 500-600 RU for screening assays. The chip was blocked with ethanolamine. […] HBS-EP buffer (0.01M HEPES, pH 7.4, 0.15 NaCl, 3 mM EDTA, 0.005% Surfactant […]) was used as running buffer for all the BIAcore assays.
A screening BIAcore assay was optimized to determine the affinity of Fab clones from libraries. Supernatants of small culture lysates were injected at 50 μl/min for 2 min. Dissociation times of 10 to 15 minutes were used for determination of a single exponential dissociation rate (koff) using BIAevaluation software. […] Clones showing improved (slower) koff values were expressed at large scale and full kinetic parameters, kon and koff, were determined on purified protein. The assay was capable of detecting differences in affinity that were approximately 2-fold or larger.
For affinity screening experiments, each library was further paired with the corresponding CDR-grafted light or heavy chain (for example, the H1/H2 library was paired with CDR-grafted light chain), the antibody was expressed, and affinity to human NGF of the individual clones was screened using the BIACORE surface plasmon resonance (SPR) system (BIAcore, Inc. Piscataway, N.J.) according to the manufacturer's instructions and as described above. koff, kon and KD were determined. Antibody clones were ranked based on koff rates, since generally most variation in affinity is seen in koff rates, and further because koff rates are independent of antibody concentration.
20-80 clones from each small library were screened using BIAcore analysis as described herein. Samples were simultaneously analyzed by BIAcore for binding affinity to NGF in one channel of the BIAcore chip and for presence of Fab by binding to a penta-histag antibody in another channel of the sensor chip, to detect the his tag at the C terminus of the heavy chain. Clones that expressed protein were classified as having the same affinity, worse affinity, better affinity or no binding, using koff to classify: The results of this analysis are shown in Table 5.
Target sequence in this assay (P01138 122-241): as the sequence (P01138 122-241 limits assumed) above

[6] = Table 6: single CDR H3 or L3 mutation in 8L2-6D5 template

Sequence of rat NGF (rat) (P25427 122-241 limits assumed): as the sequence (P01138 122-241 limits assumed) above, with S3T, I6V, R9M, M37T, D60A, D65E, M92T, G94D, V117A, A120G counted along it
Sequence of rat NGF (P25427 122-241): as the sequence (P01138 122-241 limits assumed) above, with S3T, I6V, R9M, M37T, D60A, D65E, M92T, G94D, V117A, A120G counted along it

| koff [5, 6] [s⁻¹] | Molecule | also measured |
| --- | --- | --- |
| – | mouse antibody 911 (Fab) | IC50, human NGF-dependent survival of mouse E13.5 trigeminal neurons, 1.5 pM NGF [1]: 63.5 pM; IC50, human NGF-dependent survival of mouse E13.5 trigeminal neurons, 15 pM NGF [1]: 322 pM; IC50, rat NGF-dependent survival of mouse E13.5 trigeminal neurons, 1.5 pM NGF [2]: 34.6 pM; IC50, rat NGF-dependent survival of mouse E13.5 trigeminal neurons, 15 pM NGF [2]: 161 pM |
| – | H19-L129: combined clone with matured CDRs H1, H2, L1, L2 and grafted H3 and L3 (antibody, V domains shown) VH: QVQLQESGPGLVKPSETLSLTCTVSGFSLIGYDLNWIRQPPGKGLEWIGIIWGDGTTDYNSAVKSRVTISKDTSKNQFSLKLSSVTAADTAVYYCARGGYYYGTSYYFDYWGQGTLVTVS VL: DIQMTQSPSSLSASVGDRVTITCRASQSISNNLNWYQQKPGKAPKLLIYYTSRFHSGVPSRFSGSGSGTDFTFTISSLQPEDIATYYCQQSKTLPYTFGQGTKLEIKRT | blocking of rat NGF-dependent trigeminal neuron survival [3]: strongly blocked; blocking of human NGF-dependent trigeminal neuron survival [4]: strongly blocked; koff ([5]; Table 4: combination clone, mutations in CDRs H1, H2, L1, L2): 0.00011 s⁻¹; koff ([5]; Table 8: CDR L3 H3 combination mutations, H19-L129 template (H1H2L1L2 matured)): 1.1 e-4 s-1 |
| 0.0017 | Y96R: 8L2-6D5 template with CDR L3 mutation Y96R (antibody, V domains shown) VH: QVQLQESGPGLVKPSETLSLTCTVSGFSLIGYDINWIRQPPGKGLEWIGMIWGDGTTDYNSALKSRVTISKDTSKNQFSLKLSSVTAADTAVYYCARGGYYYGTSYYFDYWGQGTLVTVS VL: DIQMTQSPSSLSASVGDRVTITCRASQDISNHLNWYQQKPGKAPKLLIYYISRFHSGVPSRFSGSGSGTDFTFTISSLQPEDIATYYCQQSKTLPRTFGQGTKLEIKRT | – |
| 0.0016 | Y110R: 8L2-6D5 template with CDR H3 mutation Y110R (antibody, V domains shown) VH: QVQLQESGPGLVKPSETLSLTCTVSGFSLIGYDINWIRQPPGKGLEWIGMIWGDGTTDYNSALKSRVTISKDTSKNQFSLKLSSVTAADTAVYYCARGGYYYGTSYYFDRWGQGTLVTVS VL: DIQMTQSPSSLSASVGDRVTITCRASQDISNHLNWYQQKPGKAPKLLIYYISRFHSGVPSRFSGSGSGTDFTFTISSLQPEDIATYYCQQSKTLPYTFGQGTKLEIKRT | – |
| 0.0015 | D109N: 8L2-6D5 template with CDR H3 mutation D109N (antibody, V domains shown) VH: QVQLQESGPGLVKPSETLSLTCTVSGFSLIGYDINWIRQPPGKGLEWIGMIWGDGTTDYNSALKSRVTISKDTSKNQFSLKLSSVTAADTAVYYCARGGYYYGTSYYFNYWGQGTLVTVS VL: DIQMTQSPSSLSASVGDRVTITCRASQDISNHLNWYQQKPGKAPKLLIYYISRFHSGVPSRFSGSGSGTDFTFTISSLQPEDIATYYCQQSKTLPYTFGQGTKLEIKRT | – |
| 0.00122 | F108W: 8L2-6D5 template with CDR H3 mutation F108W (antibody, V domains shown) VH: QVQLQESGPGLVKPSETLSLTCTVSGFSLIGYDINWIRQPPGKGLEWIGMIWGDGTTDYNSALKSRVTISKDTSKNQFSLKLSSVTAADTAVYYCARGGYYYGTSYYWDYWGQGTLVTVS VL: DIQMTQSPSSLSASVGDRVTITCRASQDISNHLNWYQQKPGKAPKLLIYYISRFHSGVPSRFSGSGSGTDFTFTISSLQPEDIATYYCQQSKTLPYTFGQGTKLEIKRT | – |
| 0.0015 | Y110S: 8L2-6D5 template with CDR H3 mutation Y110S (antibody, V domains shown) VH: QVQLQESGPGLVKPSETLSLTCTVSGFSLIGYDINWIRQPPGKGLEWIGMIWGDGTTDYNSALKSRVTISKDTSKNQFSLKLSSVTAADTAVYYCARGGYYYGTSYYFDSWGQGTLVTVS VL: DIQMTQSPSSLSASVGDRVTITCRASQDISNHLNWYQQKPGKAPKLLIYYISRFHSGVPSRFSGSGSGTDFTFTISSLQPEDIATYYCQQSKTLPYTFGQGTKLEIKRT | – |
| 0.0017 | Y110T: 8L2-6D5 template with CDR H3 mutation Y110T (antibody, V domains shown) VH: QVQLQESGPGLVKPSETLSLTCTVSGFSLIGYDINWIRQPPGKGLEWIGMIWGDGTTDYNSALKSRVTISKDTSKNQFSLKLSSVTAADTAVYYCARGGYYYGTSYYFDTWGQGTLVTVS VL: DIQMTQSPSSLSASVGDRVTITCRASQDISNHLNWYQQKPGKAPKLLIYYISRFHSGVPSRFSGSGSGTDFTFTISSLQPEDIATYYCQQSKTLPYTFGQGTKLEIKRT | – |
| 0.001 | D109G: 8L2-6D5 template with CDR H3 mutation D109G (antibody, V domains shown) VH: QVQLQESGPGLVKPSETLSLTCTVSGFSLIGYDINWIRQPPGKGLEWIGMIWGDGTTDYNSALKSRVTISKDTSKNQFSLKLSSVTAADTAVYYCARGGYYYGTSYYFGYWGQGTLVTVS VL: DIQMTQSPSSLSASVGDRVTITCRASQDISNHLNWYQQKPGKAPKLLIYYISRFHSGVPSRFSGSGSGTDFTFTISSLQPEDIATYYCQQSKTLPYTFGQGTKLEIKRT | – |
| 0.0014 | Y110K: 8L2-6D5 template with CDR H3 mutation Y110K (antibody, V domains shown) VH: QVQLQESGPGLVKPSETLSLTCTVSGFSLIGYDINWIRQPPGKGLEWIGMIWGDGTTDYNSALKSRVTISKDTSKNQFSLKLSSVTAADTAVYYCARGGYYYGTSYYFDKWGQGTLVTVS VL: DIQMTQSPSSLSASVGDRVTITCRASQDISNHLNWYQQKPGKAPKLLIYYISRFHSGVPSRFSGSGSGTDFTFTISSLQPEDIATYYCQQSKTLPYTFGQGTKLEIKRT | – |
